Target: the molecule itself
Test: negative stain electron microscopy; Cp149 assembly reaction, 50 mM HEPES, 300 mM NaCl, 10 uM dimer, no CpAM

B1: Hepatitis B virus core protein assembly domain, Cp149 (domain or fragment)
chain: MDIDPYKEFGATVELLSFLPSDFFPSVRDLLDTAAALYRDALESPEHCSPHHTALRQAILCWGDLMTLATWVGTNLEDPASRDLVVSYVNTNVGLKFRQLLWFHISCLTFGRETVLEYLVSFGVWIRTPPAYRPPNAPILSTLPETTVV
notes: Hepatitis B virus subtype adyw core protein (Cp), assembly domain: the first 149 residues of the 183-residue protein; Purified as a homodimer; Dimers were assembled into capsids at 10 uM dimer in 300 mM NaCl, 50 mM HEPES pH 7.5; The apo capsid comparator PDB 1QGT is cited without its construct being named; also called purified dimeric assembly domain; apo-capsids; source: E. coli, purified by …
B1: binds.

— PMC5788503, “Hepatitis B virus core protein allosteric modulators can distort and disrupt intact capsids” (eLife, 2018)
